Measurements as given in article PMC9882245.

Biological target: NLuc-CLR:RAMP3 (N-terminally nanoluciferase-tagged CLR co-expressed with RAMP3; AM2 receptor) (human) (UniProt Q16602)
Assay: FRET or BRET

NLuc-CLR:RAMP3 (N-terminally nanoluciferase-tagged CLR co-expressed with RAMP3; AM2 receptor) (human), sequence (Q16602 23-461, chain 1 of 2): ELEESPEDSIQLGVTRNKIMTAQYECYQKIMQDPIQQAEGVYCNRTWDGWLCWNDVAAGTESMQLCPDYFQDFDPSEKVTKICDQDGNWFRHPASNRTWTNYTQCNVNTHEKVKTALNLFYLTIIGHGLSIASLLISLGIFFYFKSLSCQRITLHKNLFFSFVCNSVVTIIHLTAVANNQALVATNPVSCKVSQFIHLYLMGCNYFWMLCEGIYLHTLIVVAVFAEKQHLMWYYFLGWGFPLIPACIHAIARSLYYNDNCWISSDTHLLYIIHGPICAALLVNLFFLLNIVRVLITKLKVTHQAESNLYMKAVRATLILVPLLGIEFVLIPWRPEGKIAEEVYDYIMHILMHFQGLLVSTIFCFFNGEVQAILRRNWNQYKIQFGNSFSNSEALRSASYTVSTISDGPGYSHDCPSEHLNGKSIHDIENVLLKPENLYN
NLuc-CLR:RAMP3 (N-terminally nanoluciferase-tagged CLR co-expressed with RAMP3; AM2 receptor) (human), sequence (O60896 24-148, chain 2 of 2, further chain): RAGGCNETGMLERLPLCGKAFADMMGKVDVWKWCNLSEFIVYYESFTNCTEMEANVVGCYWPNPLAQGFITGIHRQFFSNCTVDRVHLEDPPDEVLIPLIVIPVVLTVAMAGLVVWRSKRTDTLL

Substance | Kd | dissociation half-life, fast component | dissociation half-life, slow component | half-life (t1/2) from the off-rate of the association kinetics analysis
AM2/IMD-TAMRA (adrenomedullin 2/intermedin labeled with TAMRA on a Lys substituted at D35) (peptide) | 7 nM | 7 min | 76 min | 21 min
AM-TAMRA (adrenomedullin labeled with TAMRA on a Lys substituted at N40) (peptide) | 26 nM | 0.75 min | 6.9 min | 2.5 min
